The source of these data is paper PMC2948571.

The experiment addresses 40S-containing ribosomal complexes. In words: co-sedimentation.

B1: DExH-box protein DHX29 (enzyme)
chain: MGGKNKKHKAPGAAAVRAAVSASRAKSAEAAAAGEAQSKKPVARPPPAAAAGAREPRVKQGPKIYSFNSANDSGGPANVDKSILKVVINNKLEQRIIGVINEHKKQNNDKGMISGRLTAKKLQDLYMALQAFSFKTKDIEDAMTNTLLHGGDLHSALDWLCLNLSDDALPEGFSQEFEEQQAKSRPKFQAPQIQATISPPLQPKIKKQEEDPKIKPKKEDKNMEVNMKEWILQYAERQKEEEKSESSKSLEEEEKFDPNERYLHLAAKFLDAKEQAAAFKLEKNKQGQKEAQEKIRKFQREMETLEDHPVFNPAIKISYQQNERKKPPVATEGESSLNFNLFEKSAAPTEEEKDKKKEPHDVRNFDYTARSWTGKSPKQFLIDWVRKNLPKSPNPSFEKVPVGRYWKCRVRVIKSEDDVLVVCPAILTEDGMQAQHLGATLALYRLVKGQSVHQLLPPTYRDVWLEWSDAEKKKEELNKMETNKPRDLFIAKLLNKLKQQQQLQQQHSENKKENSEDPEESWENLVSEEDFSALSLESAVAEDLEPVRNLFRKLQSSPKYQRLLKERQQLPVFKHRESIVETLKRHRVVVVAGETGSGKSTQVPHFLLEDLLLNEWGTSKCNIICTQPRRISAVSLATRVCDELGCENGPGGRNSLCGYQIRMESRASESTRLLYCTTGVLLRKLQEDGLLSNVSHVIVDEVHERSVQSDFLLVILKEILQKRSDLHLILMSATVDSEKFSTYFTHCPILRISGRSYPVEVFHLEDIIEETGFVLEKDSEYCQKFLEEEEEITINVTSKAGGIKKYQEYIPVQTGTTADLNPLYQKYSNRTQHAILYMNPHKINLDLILELLVYLDKSPQFRNIEGAVLIFLPGLAHIQQLYDLLSNDRRFYSERYKVIALHSILSTQDQAAAFTLPPPGVRKIVLATNIAETGITIPDVVFVIDTGRTKENKYHESSQMSSLVETFVSKASALQRQGRAGRVRDGFCFRMYTRERFEGFMDYSVPEILRVPLEELCLHIMKCNLGSPEDFLSKALDPPQLQVISNAMNLLRKIGACELNEPKLTPLGQHLAALPVNVKIGKMLIFGAIFGCLDPVATLAAVMTEKSPFTTPIGRKEEADLAKSALAIADSDHLTIYNAYLGWKKAQQEGGYRSELAYCRRNFLNRTALLTLEDVKQELMKLVKAAGFSSTTSNNWEGNRASQTLSFQEIALLKAVLAAGLYDNVGKIIYTKSVDVTEKLACIVETAQGKAQVHPSSVNRDLQTYGWLLYQEKIRYARVYLRETTLITPFPVLLFGGDIEVQHRERLLSIDGWIYFQAPVKIAVIFKQLRVLIDSVLRKKLENPKMSLENDKILQIITELIKTENN
On to B1, for which the percent of 40S-ribosomal complexes associated with DHX29 was 10%.
